Data on 7 molecules can be found in PMC3499988 (Biochemistry, 2011).

One may read the IC50 as the point on the concentration scale where inhibition reaches its midpoint. A lower IC50 goes with greater potency. The term Kd denotes the concentration at which binding is half-saturated. A word on the koff: it is the first-order rate constant of dissociation. One may read the kon as the second-order rate constant of association. The low end stands for slower complex formation, the high end for faster complex formation.

Sequences and labels used below:
B1: Fab m18 (wild type) (Fab, V domains shown)
VH: VQLLESGPGVVKPSETLSLTCTVSGASVNNYYWTWVRQPPGKGLEWIGNVYDSGDTNYNPSLSSRLSLSMDTSKNQFSLRLSSVTAADTATYYCARYHRHFIRGPLSFDYWGRGTLVTVSS
VL: LQMTQSPSFLSASVGDRVSITCRASQDIQKFLAWYQLTPGDAPKLLMYSASTLQSGVPSRFSGSGSGTEFTLTISGLQPEDFATYYCQHLKRYPYTFGQGTKLEIS
B2: Fab m18 I100A (HCDR3) (Fab, V domains shown)
VH: B1 VH with I102A
VL: B1 VL
B3: Fab m18 K31A (LCDR1) (Fab, V domains shown)
VH: B1 VH
VL: B1 VL with K30A
B4: Fab m18 S52A (LCDR2) (Fab, V domains shown)
VH: B1 VH
VL: B1 VL with S51A
B5: Fab m18 F99A (HCDR3) (Fab, V domains shown)
VH: B1 VH with F101A
VL: B1 VL
B6: Fab m18 R100aA (HCDR3) (Fab, V domains shown)
VH: B1 VH with R103A
VL: B1 VL
B7: Fab m18 F99Y (HCDR3) (Fab, V domains shown)
VH: B1 VH with F101Y
VL: B1 VL

Where a chain is given by its changes, count along the chain named. Numbers in names are those of the source.

In one test the target is T1, HIV-1 YU-2 gp120 (HIV-1 (YU-2), UniProt P35961). As to the kind of experiment: SPR. (In SPR one partner is held on a chip, and binding of the other changes the refractive index at the surface.)
On to B1, for which the half-maximal inhibitory concentration (IC50) was determined as 36 ± 1.2 nM.

With B2, the 50% inhibitory concentration (IC50) is over 500 nM.

In the case of B3, the 50% inhibitory concentration (IC50) is over 500 nM.

B4: the IC50 is over 500 nM.

B5 gave a 50% inhibitory concentration (IC50) of over 500 nM.

The molecule B6 displayed a 50% inhibitory concentration (IC50) of over 500 nM.

Molecule B7 displayed an IC50 of 75.3 ± 20.6 nM.

The next test deals with T2, HIV-1 HXBc2 gp120 (HIV-1 (HXBc2), UniProt P04578). In words: SPR.
On to B1, for which the IC50 stood at 56.9 ± 13 nM.

Molecule B2 displayed an IC50 of over 500 nM.

Molecule B3 returned a half-inhibitory concentration (IC50) of over 500 nM.

The molecule B4 showed an IC50 of over 360 nM.

Molecule B5 displayed an IC50 of 69.5 ± 3.7 nM.

On to B7, for which inhibition was half-maximal at 66.7 ± 6.1 nM (IC50).

The next test deals with T1, HIV-1 YU-2 gp120. In words: SPR. This is another data set of the same source.
Regarding B1, the IC50 was 33 ± 3.6 nM.

The molecule B2 showed an IC50 of over 500 nM.

B3 returned an IC50 of over 500 nM.

Molecule B4 displayed an IC50 of at least 500 nM.

In turn, B5 gave an IC50 of over 500 nM.

Take B6: the 50% inhibitory concentration (IC50) is over 500 nM.

With B7, half-maximal inhibition (IC50) required 53.7 ± 1.5 nM.

Another test concerns the target T2, HIV-1 HXBc2 gp120. In words: SPR. The source holds these as a separate data set.
For the molecule B1, the IC50 was 36.1 ± 12.9 nM.

Molecule B2 returned an IC50 of over 500 nM.

Molecule B3 returned a half-maximal inhibitory concentration (IC50) of over 500 nM.

As to B4, the IC50 was over 360 nM.

The molecule B5 had an IC50 of 58.2 ± 4.3 nM.

For the molecule B7, it took 62.8 ± 12.3 nM to reach half-maximal inhibition (IC50).

The next test deals with T1, HIV-1 YU-2 gp120. In words: SPR. This is another data set of the same source.
B5: the binding result is reported as “binds”.

Another test deals with T1, HIV-1 YU-2 gp120. As to the kind of experiment: SPR. The source holds these as a separate data set.
Molecule B1 displayed an equilibrium dissociation constant (Kd) of 1.4 nM, a dissociation rate constant (koff) of 9.8e-05 s⁻¹ and an on-rate (kon) of 69000 ± 0.3 M⁻¹ s⁻¹.

On to B2, for which the Kd was determined as 13.1 nM, the koff was found to be 0.00036 ± 1.4 s⁻¹ and the kon amounted to 27000 ± 1.3 M⁻¹ s⁻¹.

B3: the dissociation constant Kd was 3.1 nM, the koff was 8.9e-05 s⁻¹ and the kon is 29000 ± 0.4 M⁻¹ s⁻¹.

Molecule B4 returned a Kd of 4.7 nM, a koff of 8.1e-05 s⁻¹ and an on-rate (kon) of 17000 ± 0.9 M⁻¹ s⁻¹.

Turning to B5, binding was put at a Kd of 5.9 nM, the dissociation rate constant (koff) was 0.00026 ± 1.5 s⁻¹ and the kon was 45000 ± 2.5 M⁻¹ s⁻¹.

For B6, the dissociation constant Kd is 2.3 nM, the dissociation rate constant (koff) came out at 7.6e-05 s⁻¹ and the association rate constant (kon) was found to be 34000 ± 0.9 M⁻¹ s⁻¹.

B7 came in with a Kd of 1.1 nM, a dissociation rate constant (koff) of 0.00011 ± 0.9 s⁻¹ and a kon of 94000 ± 2.5 M⁻¹ s⁻¹.

The next test deals with T2, HIV-1 HXBc2 gp120. As to the kind of experiment: SPR. The source holds these as a separate data set.
As to B1, the Kd stood at 4.3 nM, the koff amounted to 0.00022 ± 0.9 s⁻¹ and the on-rate constant (kon) was determined as 52000 ± 2.2 M⁻¹ s⁻¹.

B2 came in with a Kd of 2.8 nM, a koff of 4.6e-05 s⁻¹ and an on-rate (kon) of 17000 ± 0.07 M⁻¹ s⁻¹.

Molecule B3 had a Kd of 18.7 nM, an off-rate constant (koff) of 0.00031 ± 1.1 s⁻¹ and a kon of 17000 ± 0.5 M⁻¹ s⁻¹.

Regarding B4, binding was put at a Kd of 0.6 nM, the koff came to 2e-05 s⁻¹ and the on-rate (kon) stood at 35000 ± 2.1 M⁻¹ s⁻¹.

Take B5: binding was put at a Kd of 1.3 nM, the koff was determined as 0.00013 ± 0.1 s⁻¹ and the kon worked out at 100000 ± 0.02 M⁻¹ s⁻¹.

On to B7, for which the affinity, expressed as Kd, was 0.9 nM; the off-rate constant (koff) amounted to 9.2e-05 s⁻¹; the kon stood at 100000 ± 0.03 M⁻¹ s⁻¹.
